Measured values: PMC9976917

Legend:
Assay in all cases: fluorescence polarization
ZNF410 NT = target: T1, ZNF410 NT (Homo sapiens, UniProt Q86VK4 1-216)
T1 sequence: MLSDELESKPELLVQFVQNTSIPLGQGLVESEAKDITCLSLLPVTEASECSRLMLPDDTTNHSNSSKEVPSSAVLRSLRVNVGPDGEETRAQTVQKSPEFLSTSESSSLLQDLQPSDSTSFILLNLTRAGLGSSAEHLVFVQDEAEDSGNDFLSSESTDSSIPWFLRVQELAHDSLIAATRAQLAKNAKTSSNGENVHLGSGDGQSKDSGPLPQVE

[1] = target: T2, ZNF410 FL seven S/T-to-D/E (Homo sapiens, UniProt Q86VK4 1-478, S148D;S154D;S155D;S157D;T158E;S160D;S161D)
T2 sequence: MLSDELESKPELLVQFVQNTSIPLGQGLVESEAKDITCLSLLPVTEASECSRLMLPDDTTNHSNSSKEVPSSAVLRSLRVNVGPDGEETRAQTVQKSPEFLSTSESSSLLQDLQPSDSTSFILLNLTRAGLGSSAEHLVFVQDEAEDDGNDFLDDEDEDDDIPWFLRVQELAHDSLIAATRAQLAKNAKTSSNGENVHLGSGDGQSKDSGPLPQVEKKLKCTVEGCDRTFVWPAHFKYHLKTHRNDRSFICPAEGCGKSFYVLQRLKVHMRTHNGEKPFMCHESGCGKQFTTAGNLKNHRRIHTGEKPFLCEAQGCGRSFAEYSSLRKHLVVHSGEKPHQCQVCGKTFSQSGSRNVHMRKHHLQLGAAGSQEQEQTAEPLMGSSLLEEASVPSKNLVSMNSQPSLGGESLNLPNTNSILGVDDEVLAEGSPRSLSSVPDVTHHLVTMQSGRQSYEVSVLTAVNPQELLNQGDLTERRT

ZNF410 FL DEAED-to-AAAAA = target: T3, ZNF410 FL DEAED-to-AAAAA (Homo sapiens, UniProt Q86VK4 1-478, D143A;E144A;E146A;D147A)
T3 sequence: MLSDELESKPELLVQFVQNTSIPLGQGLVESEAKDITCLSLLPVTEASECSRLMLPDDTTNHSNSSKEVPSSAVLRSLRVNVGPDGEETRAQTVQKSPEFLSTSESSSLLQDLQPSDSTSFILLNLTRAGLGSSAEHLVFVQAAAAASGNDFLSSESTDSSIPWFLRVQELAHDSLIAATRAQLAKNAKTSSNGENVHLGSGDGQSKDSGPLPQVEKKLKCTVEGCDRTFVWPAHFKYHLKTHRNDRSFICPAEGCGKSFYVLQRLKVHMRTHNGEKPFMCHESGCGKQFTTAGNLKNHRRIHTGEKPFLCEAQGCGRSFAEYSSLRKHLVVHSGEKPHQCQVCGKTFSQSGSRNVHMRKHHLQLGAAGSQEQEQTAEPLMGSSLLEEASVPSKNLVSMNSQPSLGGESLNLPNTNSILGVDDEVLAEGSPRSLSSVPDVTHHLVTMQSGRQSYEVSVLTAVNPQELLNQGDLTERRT

B1: FAM 17-bp ZNF410 motif duplex (dsDNA)
DNA 1: CACATCCCATAATAATG
DNA 2: CATTATTATGGGATGTG
binding result (ZNF410 NT): no binding
binding signal [1]: > 6 fold lower affinity than wild-type FL
binding signal (ZNF410 FL DEAED-to-AAAAA): > 4 fold higher affinity than wild-type FL
